For assay [1], the target named is T1, human CD38 Protein (ECD, His Tag) (human, UniProt P28907 43-300).
T1 construct: extracellular domain; Commercial recombinant antigen coated on the ELISA plate at 0.5 ug/ml; also called 未标记抗原; not shown: His tag
T1 sequence (looked up): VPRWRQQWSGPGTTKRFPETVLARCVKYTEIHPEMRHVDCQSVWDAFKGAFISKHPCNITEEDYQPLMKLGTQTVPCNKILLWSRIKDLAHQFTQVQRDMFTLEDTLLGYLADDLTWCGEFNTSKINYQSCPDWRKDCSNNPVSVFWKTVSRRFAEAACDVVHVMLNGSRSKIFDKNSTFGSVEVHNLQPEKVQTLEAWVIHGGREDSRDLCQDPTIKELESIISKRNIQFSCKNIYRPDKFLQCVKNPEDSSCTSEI
The experiment in a line: ELISA, human CD38 ECD-His coated on plate, detection with HRP goat anti-mouse IgM, OD450. (ELISA stands for enzyme-linked immunosorbent assay.)

For the next assay, the target named is T2, mono-Mac-6细胞表面的CD38 (UniProt P28907 1-300, limits assumed).
T2 construct: whole, on cells; also called CD38 on mono-Mac-6 cells
T2 sequence (looked up): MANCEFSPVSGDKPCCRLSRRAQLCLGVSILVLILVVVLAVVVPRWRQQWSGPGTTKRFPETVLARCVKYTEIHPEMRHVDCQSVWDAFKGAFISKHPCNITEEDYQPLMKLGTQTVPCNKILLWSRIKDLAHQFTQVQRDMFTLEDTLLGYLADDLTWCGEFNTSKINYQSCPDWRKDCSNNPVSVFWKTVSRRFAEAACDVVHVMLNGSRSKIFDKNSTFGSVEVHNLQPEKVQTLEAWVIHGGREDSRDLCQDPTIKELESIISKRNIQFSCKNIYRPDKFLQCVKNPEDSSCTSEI
Description: flow cytometry on mono-Mac-6 cells, antibody production supernatant, APC anti-IgM secondary antibody.

We go through one molecule from CN114409788A (WEST CHINA HOSPITAL OF SICHUAN UNIV, dated 2022).

B1: 单克隆抗体70B5 (抗CD38的单克隆抗体) (antibody, V domains shown)
VH: EVQLQQSGPELVKPGASVKISCKASGYTFTDYYMNWVKQSHGKSLEWIGDINPNNGGTSYNQKFKGKATLTVDKSSSTAYMELRSLTSEDSAVYYCARGYYSNPFDVWGTGTTVTVSS
VL: DIQMTQSPSSLSASLGERVSLTCRASQDIGSSLNWLQQEPDGTIKRLIYATSSLDSGVPKRFSGSRSGSDYSLTISSLESEDFVDYYCLQYASSPLTFGAGTKLELK
notes: also called 70B5抗体
In the case of B1, the binding result (in assay [1]; in the assay with mono-Mac-6细胞表面的CD38) was “binds” each time.
